# Test results from IntAct's records for PubMed 19955427.
# B1: Protein phosphatase 2C 37 (Arabidopsis thaliana (Mouse-ear cress)), P49598 (parent)
# chain: MAGICCGVVGETEPAAPVDSTSRASLRRRLDLLPSIKIVADSAVAPPLENCRKRQKRETVVLSTLPGNLDLDSNVRSENKKARSAVTNSNSVTEAESFFSDVPKIGTTSVCGRRRDMEDAVSIHPSFLQRNSENHHFYGVFDGHGCSHVAEKCRERLHDIVKKEVEVMASDEWTETMVKSFQKMDKEVSQRECNLVVNGATRSMKNSCRCELQSPQCDAVGSTAVVSVVTPEKIIVSNCGDSRAVLCRNGVAIPLSVDHKPDRPDELIRIQQAGGRVIYWDGARVLGVLAMSRAIGDNYLKPYVIPDPEVTVTDRTDEDECLILASDGLWDVVPNETACGVARMCLRGAGAGDDSDAAHNACSDAALLLTKLALARQSSDNVSVVVVDLRKRRNNQASS
# partner: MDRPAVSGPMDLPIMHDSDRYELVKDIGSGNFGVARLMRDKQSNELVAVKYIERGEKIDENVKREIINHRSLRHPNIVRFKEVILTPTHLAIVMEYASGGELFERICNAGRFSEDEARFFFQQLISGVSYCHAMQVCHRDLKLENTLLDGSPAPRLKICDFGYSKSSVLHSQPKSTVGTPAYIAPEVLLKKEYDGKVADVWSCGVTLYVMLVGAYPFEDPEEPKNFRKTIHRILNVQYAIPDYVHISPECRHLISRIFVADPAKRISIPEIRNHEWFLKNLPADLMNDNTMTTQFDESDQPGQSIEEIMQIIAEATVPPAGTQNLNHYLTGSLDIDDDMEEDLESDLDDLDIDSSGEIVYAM
# B2: Serine/threonine-protein kinase SRK2E (Arabidopsis thaliana (Mouse-ear cress)), Q940H6 (parent)
# chain: B1 partner
# partner: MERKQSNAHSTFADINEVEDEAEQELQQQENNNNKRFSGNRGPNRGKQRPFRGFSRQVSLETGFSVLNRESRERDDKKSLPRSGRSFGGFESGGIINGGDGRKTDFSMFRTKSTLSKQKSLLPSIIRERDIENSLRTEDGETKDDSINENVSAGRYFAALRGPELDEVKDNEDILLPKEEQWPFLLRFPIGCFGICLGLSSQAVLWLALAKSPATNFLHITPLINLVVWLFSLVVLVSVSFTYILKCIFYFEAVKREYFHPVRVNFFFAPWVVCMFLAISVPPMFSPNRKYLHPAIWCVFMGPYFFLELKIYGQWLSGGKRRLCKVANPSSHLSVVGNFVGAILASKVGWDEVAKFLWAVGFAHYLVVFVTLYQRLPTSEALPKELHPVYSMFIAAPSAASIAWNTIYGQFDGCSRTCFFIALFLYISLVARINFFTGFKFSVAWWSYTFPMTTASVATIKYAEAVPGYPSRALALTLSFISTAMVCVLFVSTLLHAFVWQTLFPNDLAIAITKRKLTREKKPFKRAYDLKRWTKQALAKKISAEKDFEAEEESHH
# Variants of: B1
# Settings: with srk2e_arath SRK2E
row,effect of a mutation on the interaction,Variant
1,disrupting interaction,G139D;G145D

# Variants of: B2
# Settings: with slac1_arath SLAC1, Q9LD83
row,Variant,effect of a mutation on the interaction
1,K50N,disrupting interaction
